According to paper PMC2133165 (The Journal of Cell Biology, 1999):

Tests used:
SF3a60 = biological target: T1, SF3a60 (human (endogenous in HeLa), UniProt Q12874 1-501); assay: co-IP
T1 sequence: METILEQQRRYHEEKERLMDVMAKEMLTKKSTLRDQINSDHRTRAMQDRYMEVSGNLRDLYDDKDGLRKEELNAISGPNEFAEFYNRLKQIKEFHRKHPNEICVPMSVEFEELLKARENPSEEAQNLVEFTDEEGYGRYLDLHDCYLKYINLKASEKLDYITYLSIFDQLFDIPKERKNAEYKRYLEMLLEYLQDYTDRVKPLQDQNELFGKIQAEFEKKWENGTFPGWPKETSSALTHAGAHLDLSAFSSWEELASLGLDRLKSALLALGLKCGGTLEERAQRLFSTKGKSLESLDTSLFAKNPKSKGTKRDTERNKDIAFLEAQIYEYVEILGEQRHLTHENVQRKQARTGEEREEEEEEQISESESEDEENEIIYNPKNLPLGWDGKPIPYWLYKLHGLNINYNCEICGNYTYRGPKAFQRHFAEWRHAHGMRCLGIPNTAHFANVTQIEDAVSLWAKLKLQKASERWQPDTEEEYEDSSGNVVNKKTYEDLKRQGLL

SF3a120 = biological target: T2, SF3a120 (human (endogenous in HeLa), UniProt Q15459 1-793); assay: co-IP
T2 sequence: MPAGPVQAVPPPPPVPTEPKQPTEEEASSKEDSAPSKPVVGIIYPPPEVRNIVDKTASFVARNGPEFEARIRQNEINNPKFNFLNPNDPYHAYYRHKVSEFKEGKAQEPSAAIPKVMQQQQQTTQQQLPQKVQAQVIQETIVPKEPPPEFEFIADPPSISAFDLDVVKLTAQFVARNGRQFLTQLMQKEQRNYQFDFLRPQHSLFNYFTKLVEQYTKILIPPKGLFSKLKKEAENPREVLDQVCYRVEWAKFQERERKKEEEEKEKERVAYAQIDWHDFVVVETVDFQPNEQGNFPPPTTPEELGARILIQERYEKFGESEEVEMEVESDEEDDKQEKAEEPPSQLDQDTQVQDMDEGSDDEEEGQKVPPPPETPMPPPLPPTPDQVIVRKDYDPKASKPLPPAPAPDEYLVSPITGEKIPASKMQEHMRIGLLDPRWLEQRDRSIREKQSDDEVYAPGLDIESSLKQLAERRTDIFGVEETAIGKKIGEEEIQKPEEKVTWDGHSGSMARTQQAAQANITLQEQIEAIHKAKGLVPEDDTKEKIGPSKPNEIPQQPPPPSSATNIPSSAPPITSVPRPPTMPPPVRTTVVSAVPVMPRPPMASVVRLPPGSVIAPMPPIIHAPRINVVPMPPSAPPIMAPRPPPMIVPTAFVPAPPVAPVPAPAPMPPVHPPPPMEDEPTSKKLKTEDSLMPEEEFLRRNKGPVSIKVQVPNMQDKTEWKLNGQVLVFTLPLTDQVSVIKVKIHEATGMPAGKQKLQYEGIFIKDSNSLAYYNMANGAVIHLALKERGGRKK

B1: SF3a66 (natural protein)
chain: MDFQHRPGGKTGSGGVASSSESNRDRRERLRQLALETIDINKDPYFMKNHLGSYECKLCLTLHNNEGSYLAHTQGKKHQTNLARRAAKEAKEAPAQPAPEKVKVEVKKFVKIGRPGYKVTKQRDSEMGQQSLLFQIDYPEIAEGIMPRHRFMSAYEQRIEPPDRRWQYLLMAAEPYETIAFKVPSREIDKAEGKFWTHWNRETKQFFLQFHFKMEKPPAPPSLPAGPPGVKRPPPPLMNGLPPRPPLPESLPPPPPGGLPLPPMPPTGPAPSGPPGPPQLPPPAPGVHPPAPVVHPPASGVHPPAPGVHPPAPGVHPPAPGVHPPTSGVHPPAPGVHPPAPGVHPPAPGVHPPAPGVHPPAPGVHPPPSAGVHPQAPGVHPAAPAVHPQAPGVHPPAPGMHPQAPGVHPQPPGVHPSAPGVHPQPPGVHPSNPGVHPPTPMPPMLRPPLPSEGPGNIPPPPPTN
- binding result (SF3a60): binds
- binding result (SF3a120): binds
